Data: patent publication US20240182596A1 (TUBULIS, published 2024)

How the values were obtained:
[1] = target: T1, human NaPi2b on NaPi2b-positive cell lines OVCAR-3 and HCC-78 (human, UniProt O95436 1-690); test: cell-based or functional assay
T1 sequence: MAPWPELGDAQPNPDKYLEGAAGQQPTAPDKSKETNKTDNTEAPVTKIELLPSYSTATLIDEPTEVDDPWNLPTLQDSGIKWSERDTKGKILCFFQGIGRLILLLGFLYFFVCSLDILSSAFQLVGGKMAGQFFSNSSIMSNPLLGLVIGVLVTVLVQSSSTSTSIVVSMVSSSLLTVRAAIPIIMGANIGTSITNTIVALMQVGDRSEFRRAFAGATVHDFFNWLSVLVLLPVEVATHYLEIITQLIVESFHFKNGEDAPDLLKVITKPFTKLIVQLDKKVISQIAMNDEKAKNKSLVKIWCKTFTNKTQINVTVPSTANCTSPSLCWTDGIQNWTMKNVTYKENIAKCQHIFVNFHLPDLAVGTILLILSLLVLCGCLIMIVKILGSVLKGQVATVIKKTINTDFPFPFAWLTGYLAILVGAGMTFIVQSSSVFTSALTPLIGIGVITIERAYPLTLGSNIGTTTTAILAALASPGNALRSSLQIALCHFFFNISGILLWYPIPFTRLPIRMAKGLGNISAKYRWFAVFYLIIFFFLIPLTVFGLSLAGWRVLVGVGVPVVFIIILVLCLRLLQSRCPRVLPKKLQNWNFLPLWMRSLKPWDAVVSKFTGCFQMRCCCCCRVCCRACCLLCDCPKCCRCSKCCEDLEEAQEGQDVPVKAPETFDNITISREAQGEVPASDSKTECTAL

[2] = target: T2, FcγRIIa (CD32) (H131) (Fused to the SmBiT luciferase fragment (Promega Lumit reagent), not carried in the letters); test: Lumit FcγRIIa (H131) Binding Immunoassay (Promega), left panel FcγRIIa (CD32) (H131), competition with Tracer-LgBiT for FcγR-SmBiT, n=1
T2 construct: m20 joins both polymorphic variants; also called H131 variant of m20; not shown: SmBiT tag (and any linker or purification tag) of Promega's FcγR-SmBiT fusion
T2 chain: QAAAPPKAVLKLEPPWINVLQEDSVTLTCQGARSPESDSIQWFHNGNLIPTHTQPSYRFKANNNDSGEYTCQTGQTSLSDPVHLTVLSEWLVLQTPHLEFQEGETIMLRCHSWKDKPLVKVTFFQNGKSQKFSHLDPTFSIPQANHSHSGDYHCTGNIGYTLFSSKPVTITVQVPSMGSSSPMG

[3] = target: T3, human Napi2b-mCherry on HEK293 cells (human, UniProt O95436 1-690); test: flow cytometry on HEK293 cells expressing human Napi2b-mCherry (panel Napi2b-HEK293), Alexa-dye anti-human IgG H+L secondary antibody, MFI ratio to the non-specific binding control
T3 construct: also called Napi2b (SLC34A2); HEK293 cells overexpressing Napi2b
T3 sequence: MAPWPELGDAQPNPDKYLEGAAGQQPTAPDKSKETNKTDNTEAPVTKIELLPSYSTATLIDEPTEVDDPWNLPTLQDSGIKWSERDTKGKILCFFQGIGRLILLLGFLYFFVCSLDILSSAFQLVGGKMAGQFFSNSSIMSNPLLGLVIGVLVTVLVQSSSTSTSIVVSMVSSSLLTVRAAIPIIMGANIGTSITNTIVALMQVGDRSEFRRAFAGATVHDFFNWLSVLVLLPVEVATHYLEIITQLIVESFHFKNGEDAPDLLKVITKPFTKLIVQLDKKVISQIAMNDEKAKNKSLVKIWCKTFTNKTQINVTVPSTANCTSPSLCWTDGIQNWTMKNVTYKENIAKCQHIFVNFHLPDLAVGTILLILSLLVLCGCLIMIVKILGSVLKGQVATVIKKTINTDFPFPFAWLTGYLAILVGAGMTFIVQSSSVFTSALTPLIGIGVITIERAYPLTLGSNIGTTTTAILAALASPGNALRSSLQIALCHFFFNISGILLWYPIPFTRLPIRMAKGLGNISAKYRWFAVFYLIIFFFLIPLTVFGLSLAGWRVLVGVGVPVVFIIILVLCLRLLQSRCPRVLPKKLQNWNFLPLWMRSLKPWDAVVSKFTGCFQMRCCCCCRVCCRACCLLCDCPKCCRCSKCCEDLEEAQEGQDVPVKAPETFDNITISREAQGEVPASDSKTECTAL

[4] = target: T4, human Napi2c-mCherry on HEK293 cells (human, UniProt Q8N130 1-599); test: flow cytometry on HEK293 cells expressing human Napi2c-mCherry (panel Napi2c-HEK293), MFI ratio to the non-specific binding control
T4 construct: whole, on cells; also called Napi2c (SLC34A3); not shown: mCherry fusion
T4 sequence (looked up): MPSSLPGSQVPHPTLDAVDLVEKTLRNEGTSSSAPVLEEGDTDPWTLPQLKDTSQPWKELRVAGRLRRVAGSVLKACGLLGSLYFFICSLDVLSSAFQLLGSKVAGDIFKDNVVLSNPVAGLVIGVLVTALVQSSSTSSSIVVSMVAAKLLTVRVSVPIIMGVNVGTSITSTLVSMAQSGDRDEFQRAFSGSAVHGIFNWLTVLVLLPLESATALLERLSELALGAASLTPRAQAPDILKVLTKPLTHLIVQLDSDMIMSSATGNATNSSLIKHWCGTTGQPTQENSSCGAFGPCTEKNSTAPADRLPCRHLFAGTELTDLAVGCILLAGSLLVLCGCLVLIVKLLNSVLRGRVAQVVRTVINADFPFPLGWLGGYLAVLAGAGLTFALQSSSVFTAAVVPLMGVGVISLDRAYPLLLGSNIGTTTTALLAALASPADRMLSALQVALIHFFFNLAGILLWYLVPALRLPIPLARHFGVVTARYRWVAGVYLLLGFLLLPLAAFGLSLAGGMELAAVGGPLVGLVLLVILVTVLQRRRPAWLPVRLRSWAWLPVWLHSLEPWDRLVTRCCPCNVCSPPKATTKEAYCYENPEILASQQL

[5] = target: T5, recombinant human FcγRI (FcγR-SmBiT, Lumit assay) (human, UniProt P12314 16-292); test: Lumit FcγRI Binding Immunoassay (Promega), competition with Tracer-LgBiT for FcγRI-SmBiT, falling luminescence means binding, n=1
T5 construct: Kit reagent (Promega); also called FcγRI (CD64); not shown: SmBiT label of the kit
T5 sequence (P12314 16-292): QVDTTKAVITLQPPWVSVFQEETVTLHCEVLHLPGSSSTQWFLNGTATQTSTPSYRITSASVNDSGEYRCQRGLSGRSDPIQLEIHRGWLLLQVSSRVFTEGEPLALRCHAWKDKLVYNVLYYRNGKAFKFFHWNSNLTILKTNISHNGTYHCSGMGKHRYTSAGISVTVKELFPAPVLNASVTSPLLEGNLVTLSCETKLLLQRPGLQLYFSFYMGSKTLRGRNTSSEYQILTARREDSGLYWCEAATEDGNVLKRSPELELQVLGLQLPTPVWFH

[6] = target: T6, FcγRIIIa (CD16) (V158) (Homo sapiens, UniProt P08637); test: Lumit FcγRIIIa (V158) Binding Immunoassay (Promega), left panel FcγRIIIa (CD16) (V158), competition with Tracer-LgBiT for FcγR-SmBiT, falling luminescence means binding, n=1
T6 construct: m21 joins both polymorphic variants; also called V158 variant of m21
T6 sequence (P08637 17-208 F176V limits assumed): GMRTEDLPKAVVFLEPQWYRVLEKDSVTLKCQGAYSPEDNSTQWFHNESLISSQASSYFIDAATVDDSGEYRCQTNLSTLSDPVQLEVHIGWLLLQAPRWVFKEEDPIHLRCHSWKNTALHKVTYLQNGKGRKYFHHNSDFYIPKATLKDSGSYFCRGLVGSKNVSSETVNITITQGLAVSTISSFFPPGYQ

[7] = target: T7, FcγRIIIa (CD16) (F158) (Homo sapiens, UniProt P08637); test: Lumit FcγRIIIa (F158) Binding Immunoassay (Promega), right panel FcγRIIIa (CD16) (F158), competition with Tracer-LgBiT for FcγR-SmBiT, falling luminescence means binding, n=1
T7 construct: m21 joins both polymorphic variants; also called F158 variant of m21
T7 sequence (P08637 17-208 limits assumed): as the sequence (P08637 17-208 F176V limits assumed) above, with V160F counted along it

[8] = target: T8, human Napi2a-mCherry on HEK293 cells (human, UniProt Q06495 1-639); test: flow cytometry on HEK293 cells expressing human Napi2a-mCherry (panel Napi2a-HEK293), MFI ratio to the non-specific binding control
T8 construct: whole, on cells; also called Napi2a (SLC34A1); not shown: mCherry fusion
T8 sequence (looked up): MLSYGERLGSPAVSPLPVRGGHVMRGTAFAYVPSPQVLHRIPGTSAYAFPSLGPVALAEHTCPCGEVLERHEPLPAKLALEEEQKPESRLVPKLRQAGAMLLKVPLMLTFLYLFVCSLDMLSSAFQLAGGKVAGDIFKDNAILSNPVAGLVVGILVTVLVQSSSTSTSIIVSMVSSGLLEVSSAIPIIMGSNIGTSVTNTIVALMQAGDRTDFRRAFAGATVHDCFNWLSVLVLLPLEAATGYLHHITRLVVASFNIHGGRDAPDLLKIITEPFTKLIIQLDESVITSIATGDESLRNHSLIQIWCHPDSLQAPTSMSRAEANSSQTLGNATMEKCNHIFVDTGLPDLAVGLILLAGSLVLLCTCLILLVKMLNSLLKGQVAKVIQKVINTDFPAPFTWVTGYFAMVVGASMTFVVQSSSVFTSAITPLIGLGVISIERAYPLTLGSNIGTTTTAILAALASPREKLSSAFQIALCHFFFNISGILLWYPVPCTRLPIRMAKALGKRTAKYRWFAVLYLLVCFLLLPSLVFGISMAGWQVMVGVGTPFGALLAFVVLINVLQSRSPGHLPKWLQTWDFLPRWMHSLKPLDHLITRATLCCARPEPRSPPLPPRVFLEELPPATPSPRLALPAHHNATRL

B1: AV25-P5(PEG24)-VC-PAB-Exatecan DAR8 ADC (antibody, human IgG1, kappa, L234A L235A)
heavy: not shown
light: DIQMTQSPSSLSASVGDRVTITCSASQDIGNFLNWYQQKPGKTVKVLIYYASSLYSGVPSRFSGSGSGTDYTLTISSLQPEDFATYYCQQYSKLPLTFGQGTKLELKRTVAAPSVFIFPPSDEQLKSGTASVVCLLNNFYPREAKVQWKVDNALQSGNSQESVTEQDSKDSTYSLSSTLTLSKADYEKHKVYACEVTHQGLSSPVTKSFNRGEC
modifications: P5(PEG24)-VC-PAB-Exatecan linker-payload on the interchain cysteine (1 per light chain, DAR8); P5(PEG24)-VC-PAB-Exatecan linker-payload on interchain cysteines (up to 3 per heavy chain, DAR8)
notes: also called TUB-040
- IC50 of cytotoxicity (resazurin assay, 7 days) on HCC-78, against the anti-Napi2b comparison ADC [1]: 15.5 fold lower IC50
- binding result [2]: no binding
- EC50 (read off the curve) [3]: ~0.9 nM
- binding result [4]: no binding (tested: 200 nM)
- binding result [5]: binds
- binding result [6]: binds
- binding result [7]: binds
- binding result [8]: no binding (tested: 200 nM)
